Assays:
[1] = target: T1, human 5T4 (SPR and epitope mapping, construct not stated) (human, UniProt Q13641 32-355, limits assumed); test: SPR, h5T4 binding; control sample, HST pH 6, 7 days 4 °C
T1 construct: also called h5T4
T1 sequence (looked up): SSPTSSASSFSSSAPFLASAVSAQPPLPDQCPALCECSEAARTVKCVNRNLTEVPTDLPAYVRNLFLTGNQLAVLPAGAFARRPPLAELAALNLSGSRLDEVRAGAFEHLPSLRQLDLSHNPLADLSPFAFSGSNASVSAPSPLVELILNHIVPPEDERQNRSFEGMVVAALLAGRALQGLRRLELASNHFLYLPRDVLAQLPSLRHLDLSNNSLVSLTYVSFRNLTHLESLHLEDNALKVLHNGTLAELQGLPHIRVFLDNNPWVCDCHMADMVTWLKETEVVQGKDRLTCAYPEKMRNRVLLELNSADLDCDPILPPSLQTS

[2] = target: T2, human 5T4 on the cell surface (human, UniProt Q13641 32-420); test: flow cytometry on HT29 cells (5,000 5T4 per cell)
T2 construct: whole, on cells; also called h5T4; TPBG
T2 sequence (looked up): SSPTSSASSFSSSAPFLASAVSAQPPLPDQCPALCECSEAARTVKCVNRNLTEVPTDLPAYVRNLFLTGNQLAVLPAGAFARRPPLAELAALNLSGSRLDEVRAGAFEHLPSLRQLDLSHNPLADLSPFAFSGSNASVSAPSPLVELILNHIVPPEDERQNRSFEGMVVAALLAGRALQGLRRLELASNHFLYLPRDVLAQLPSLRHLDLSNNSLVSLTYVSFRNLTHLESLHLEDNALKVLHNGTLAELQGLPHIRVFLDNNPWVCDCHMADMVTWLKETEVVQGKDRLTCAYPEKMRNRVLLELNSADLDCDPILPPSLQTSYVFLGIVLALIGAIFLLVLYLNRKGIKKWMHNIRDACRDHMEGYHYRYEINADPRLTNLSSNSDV

[3] = target: T1, human 5T4 (SPR and epitope mapping, …); test: SPR, Biacore 8K, 37 °C, TriNKET captured on anti-hFc chip, pH 6.0
Protocol: Briefly, SPR was performed using a Biacore 8K instrument at physiological temperature of 37° C. Briefly, human Fc specific antibodies were covalently immobilized at a density of about 8000-10000 resonance units (RU) on carboxy methyl dextran matrix of a CM5 biosensor chip to create an anti-hFc IgG chip. Samples were injected on the anti-hFc IgG chip at a flow rate of 10 μL/min for 60 seconds. Protein was serially diluted (300 nM-0.14 nM) in three-fold dilutions with running buffer and injected at a flow rate of 30 μl/min over the captured test articles. Association was monitored for 240-300 seconds, and dissociation was monitored for 300-900 seconds. Surfaces were regenerated between cycles with three pulses of 10 mM glycine-HCl (pH 1.7) injected for 20 seconds at 100 μL/min.

[4] = target: T2, human 5T4 on the cell surface; test: flow cytometry on BT474 cells (20,000 5T4 per cell)
[5] = target: T2, human 5T4 on the cell surface; test: flow cytometry on HCC4006 cells (53,000 5T4 per cell)
[6] = target: T2, human 5T4 on the cell surface; test: cell-based or functional assay
[7] = target: T2, human 5T4 on the cell surface; test: cell-based or functional assay; remark: listed apart in the source
[8] = target: T2, human 5T4 on the cell surface; test: cell-based or functional assay; remark: listed apart in the source
[9] = target: T2, human 5T4 on the cell surface; test: cell-based or functional assay; remark: listed apart in the source
[10] = target: T2, human 5T4 on the cell surface; test: flow cytometry on H292 cells (11,000 5T4/cell), fold over background
Protocol: The KYSE-30 and H292 human cancer cell lines, derived from esophageal squamous cell carcinoma and non-small cell lung carcinoma, respectively, were used. […] After incubation, binding patterns of the TriNKET® and mAb to 5T4+ cells were detected using a fluorophore conjugated anti-human IgG secondary antibody. Cells were analyzed by flow cytometry and fold MFI over secondary-only controls reported.

[11] = target: T1, human 5T4 (SPR and epitope mapping, …); test: SPR, kinetics fit
[12] = target: T3, human NKG2D (recombinant, construct not stated) (human, UniProt P26718 78-216, limits assumed); test: SPR, kinetics fit
T3 construct: also called hNKG2D
T3 sequence (looked up): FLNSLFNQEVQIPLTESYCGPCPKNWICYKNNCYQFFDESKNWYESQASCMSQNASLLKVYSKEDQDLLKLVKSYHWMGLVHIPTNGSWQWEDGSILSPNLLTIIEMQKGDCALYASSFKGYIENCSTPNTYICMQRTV

Human CD16aV = target: T4, Human CD16aV (human, UniProt P08637 17-208); test: SPR, kinetics fit
T4 construct: position 158 counts on the mature protein
T4 sequence (P08637 17-208 F176V): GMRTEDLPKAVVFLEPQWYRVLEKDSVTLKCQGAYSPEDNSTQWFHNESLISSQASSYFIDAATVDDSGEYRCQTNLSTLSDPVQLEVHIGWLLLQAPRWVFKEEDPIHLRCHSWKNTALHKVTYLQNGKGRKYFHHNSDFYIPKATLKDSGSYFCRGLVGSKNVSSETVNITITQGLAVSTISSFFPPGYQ

[13] = target: T1, human 5T4 (SPR and epitope mapping, …); test: SPR, h5T4 binding; sample oxidised in PBS 0.02% H2O2, 24 hrs RT

B1: AB1310/AB1783-TriNKET® (bispecific antibody, human IgG1, kappa)
chain: DIQLTQSPSSLSASVGDRVTITCRASQSVTTSNYNYMHWFQQKPGKAPKLLIKFASNLESGVPSRFSGSGSGTDFTLTISSLQPEDFATYYCQHSWEIPWTFGCGTKVEIKGGGGSGGGGSGGGGSGGGGSEVQLVESGGGLVKPGGSLRLSCAASRFTFSDFGMHWVRQAPGKCLEWVSYISSGSSTIYYADSVKGRFTISRDNAKNSLYLQMNSLRAEDTAVYYCASSQSYYRGTLDYWGQGTTVTVSSASDKTHTCPPCPAPELLGGPSVFLFPPKPKDTLMISRTPEVTCVVVDVSHEDPEVKFNWYVDGVEVHNAKTKPREEQYNSTYRVVSVLTVLHQDWLNGKEYKCKVSNKALPAPIEKTISKAKGQPREPRVYTLPPCRDELTKNQVSLTCLVKGFYPSDIAVEWESNGQPENNYKTTPPVLVSDGSFTLYSKLTVDKSRWQQGNVFSCSVMHEALHNHYTQKSLSLSPG
heavy: EVQLVESGGGLVKPGGSLRLSCAASGFTFSSYSMNWVRQAPGKGLEWVSSISSSSSYIYYADSVKGRFTISRDNAKNSLYLQMNSLRAEDTAVYYCARGAPIGAAAGWFDPWGQGTLVTVSSASTKGPSVFPLAPSSKSTSGGTAALGCLVKDYFPEPVTVSWNSGALTSGVHTFPAVLQSSGLYSLSSVVTVPSSSLGTQTYICNVNHKPSNTKVDKKVEPKSCDKTHTCPPCPAPELLGGPSVFLFPPKPKDTLMISRTPEVTCVVVDVSHEDPEVKFNWYVDGVEVHNAKTKPREEQYNSTYRVVSVLTVLHQDWLNGKEYKCKVSNKALPAPIEKTISKAKGQPREPQVCTLPPSRDELTENQVSLTCLVKGFYPSDIAVEWESNGQPENNYKTTPPVLDSDGSFFLYSWLTVDKSRWQQGNVFSCSVMHEALHNHYTQKSLSLSPG
light: DIQMTQSPSSVSASVGDRVTITCRASQGISSWLAWYQQKPGKAPKLLIYAASSLQSGVPSRFSGSGSGTDFTLTISSLQPEDFATYYCQQGVSFPRTFGGGTKVEIKRTVAAPSVFIFPPSDEQLKSGTASVVCLLNNFYPREAKVQWKVDNALQSGNSQESVTEQDSKDSTYSLSSTLTLSKADYEKHKVYACEVTHQGLSSPVTKSFNRGEC
notes: also called AB1310-TriNKET®; AB1783 10F10 F3′ LH H(T62S) CHO opt
Kd [1]: 7.8 nM
koff [1]: 0.00091 s⁻¹
kon [1]: 120000 M⁻¹ s⁻¹
EC50 [2]: 4.1 nM
Kd [3]: 9.4 nM
koff [3]: 0.0012 s⁻¹
kon [3]: 120000 M⁻¹ s⁻¹
EC50 [4]: 3.7 nM
EC50 [5]: 7.6 nM
NK cell-mediated lysis of 786-O cells (DELFIA), EC50 [6]: 0.19 nM
NK cell-mediated lysis of BT474 cells (DELFIA), EC50 [6]: 0.14 nM
NK cell-mediated lysis of Detroit 562 cells (DELFIA), EC50 [6]: 0.23 nM
NK cell-mediated lysis of FaDu cells (DELFIA), EC50 [6]: 0.19 nM
NK cell-mediated lysis of H292 cells (DELFIA), EC50 [6]: 0.1 nM
NK cell-mediated lysis of H1703 cells (DELFIA), EC50 [6]: 0.14 nM
NK cell-mediated lysis of H1975 cells (DELFIA), EC50 [6]: 0.29 nM
NK cell-mediated lysis of HCC4006 cells (DELFIA), EC50 [6]: 0.24 nM
NK cell-mediated lysis of HCT116 cells (DELFIA), EC50 [6]: 0.097 nM
NK cell-mediated lysis of HT29 cells (DELFIA), EC50 [6]: 0.42 nM
NK cell-mediated lysis of KYSE-30 cells (DELFIA), EC50 [6]: 0.072 nM
cynomolgus monkey NK cell activation in co-culture with H292 cells, EC50 [7]: 0.06 nM
cynomolgus monkey NK cell activation in co-culture with KYSE-30 cells, EC50 [7]: 0.06 nM
human NK cell activation in co-culture with H292 cells, EC50 [7]: 0.35 nM
human NK cell activation in co-culture with KYSE-30 cells, EC50 [7]: 0.13 nM
NK cell-mediated lysis of primary CAFs, EC50 (first column pair) [8]: 0.081 nM
NK cell-mediated lysis of primary CAFs, EC50 (second column pair) [8]: 0.19 nM
long-term NK cell-mediated inhibition of HCT 116 cells (Incucyte, 72 h), EC50 [9]: 0.16 nM
long-term NK cell-mediated inhibition of HT-29 cells (Incucyte, 72 h), EC50 [9]: 1.3 nM
long-term NK cell-mediated inhibition of KYSE-30 cells (Incucyte, 72 h), EC50 [9]: 0.087 nM
long-term NK cell-mediated inhibition of NCI-H292 cells (Incucyte, 72 h), EC50 [9]: 0.37 nM
EC50 (read off the curve) [10]: ~3 nM
Kd [11]: 6.1 nM
koff [11]: 0.00077 s⁻¹
kon [11]: 130000 M⁻¹ s⁻¹
Kd [12]: 370 nM
koff [12]: 0.088 s⁻¹
kon [12]: 240000 M⁻¹ s⁻¹
Kd (Human CD16aV): 112 nM
koff (Human CD16aV): 0.017 s⁻¹
kon (Human CD16aV): 150000 M⁻¹ s⁻¹
Kd [13]: 7 nM
koff [13]: 0.00086 s⁻¹
kon [13]: 120000 M⁻¹ s⁻¹

Reference: patent publication US20230203202A1 (DRAGONFLY THERAPEUTICS, published 2023)
